The supplement of paper PMC7877785
± gives the uncertainty stated by the source.

Test: self-splicing fitness, log relative to wild type (ln ratio); higher = more splicing; Tetrahymena group I intron in knt gene, E. coli kanamycin selection, DiMSum; sequences stand for … in CUCUCU…GGAGGGAAAAGUUAUCAGGCAUGCACCUGGUAGCUAGUCUUUAAACCAAUAGAUUGCAUCGGUUUAAAAGGCAAGACCGUCAAAUUGCGGGAAAGGGGUCAACAGCCGUUCAGUACCAAGUCUCAGGGGAAACUUUGAGAUGGCCUUGCAAAGGGUAUGGUAAUAAGCUGACGGACAUGGUCCUAACCACGCAGCCAAGUCCUAAGUCAACAGAUCUUCUGUUGAUAUGGAUGCAGUUCACAGACUAAAUGUCGGUCGGGGAAGAUGUAUUCUUCUCAUAAGAUAUAGUCGGACCUCUCCUUAAUGGGAGCUAGCGGAUGAAGUGAUGCAACACUGGAGCCGCUGGGAACUAAUUUGUAUGCGAAAGUAUAUUGAUUAGUUUUGGAGUACUCGUGGUCG
Summary of the method: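 Library with all eight P1ex-region intron nucleotides randomised, intron inside the knt kanamycin-resistance gene on pET-22b(+), in E. coli BL21(DE3). Cells grew overnight at 37°C or 30°C on LB agar with or without 25 μg/mL kanamycin (plus 100 μg/mL carbenicillin, 50 μM IPTG, 0.2% rhamnose), in six replicate transformations. Pooled colonies were amplicon-sequenced on Illumina HiSeq 2500. DiMSum fitness is the error-weighted combination of wild-type-normalised replicate fold changes, kanamycin versus none.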

Row | Sequence | self-splicing fitness (ln) (30 °C) | self-splicing fitness (ln) (37 °C)
1 | CAGAAGCAAUAUUACGCGCA | -1.55 ± 0.17 | -0.337 ± 0.12
2 | CCCCAGCAAUAUUACGCUAC | -2.29 ± 0.17 | -2.05 ± 0.22
3 | GAAUAGCAAUAUUACGAGAU | -3.86 ± 0.23 | -1.22 ± 0.14
4 | CCGAAGCAAUAUUACGCAAG | -1.83 ± 0.17 | -1.12 ± 0.17
5 | AUGAAGCAAUAUUACGCGUA | -0.537 ± 0.061 | -0.226 ± 0.07
6 | UAUGAGCAAUAUUACGCUAC | -2.79 ± 0.2 | -2.25 ± 0.43
7 | CAGGAGCAAUAUUACGGUAU | -3.42 ± 0.15 | -2.86 ± 0.16
8 | CGUAAGCAAUAUUACGUAGG | -1.09 ± 0.082 | -0.149 ± 0.11
9 | UGCUAGCAAUAUUACGGUAA | -1.03 ± 0.15 | -1.47 ± 0.12
10 | UGAGAGCAAUAUUACGUACU | – | -1.87 ± 0.25
11 | GGUGAGCAAUAUUACGGAAG | – | -2.66 ± 0.41
12 | CCAGAGCAAUAUUACGCAGG | -3.56 ± 0.15 | -2.53 ± 0.17
13 | CAUCAGCAAUAUUACGACAU | -2.905 ± 0.017 | -1.51 ± 0.033
14 | CGUCAGCAAUAUUACGUCUU | -2.3 ± 0.14 | -0.743 ± 0.11
15 | AGGCAGCAAUAUUACGAAGU | -2.32 ± 0.1 | -0.471 ± 0.098
16 | AGACAGCAAUAUUACGGGCC | -1.45 ± 0.1 | -1.21 ± 0.11
17 | AUCGAGCAAUAUUACGCAUG | -3.62 ± 0.37 | -2.62 ± 0.26
18 | GUGAAGCAAUAUUACGUACU | -1.14 ± 0.055 | -0.0726 ± 0.07
19 | CCGAAGCAAUAUUACGACGU | -1.03 ± 0.08 | 0.0423 ± 0.092
20 | UUCCAGCAAUAUUACGUUUC | -3.24 ± 0.23 | -2.17 ± 0.21
21 | CCUCAGCAAUAUUACGUACC | -4.27 ± 0.25 | -3.42 ± 0.39
22 | CUUAAGCAAUAUUACGGCGU | -3.35 ± 0.2 | -1.89 ± 0.17
23 | CAUUAGCAAUAUUACGCAAU | – | -1.54 ± 0.43
24 | CUUGAGCAAUAUUACGGAAC | -2.25 ± 0.2 | -2.61 ± 0.33
25 | GUAAAGCAAUAUUACGCAGU | -2.99 ± 0.18 | -1.06 ± 0.16

Row | Sequence | self-splicing fitness (ln) (30 °C) | self-splicing fitness (ln) (37 °C)
26 | GCUCAGCAAUAUUACGCUAG | -1.03 ± 0.075 | -0.659 ± 0.11
27 | CACUAGCAAUAUUACGGGUA | -0.856 ± 0.057 | -0.188 ± 0.064
28 | AGAAAGCAAUAUUACGUCGG | -1.37 ± 0.088 | -1.04 ± 0.11
29 | CCAGAGCAAUAUUACGUGGA | -4.15 ± 0.23 | -2.03 ± 0.16
30 | GGAUAGCAAUAUUACGGUGC | -1.85 ± 0.48 | -2.5 ± 0.49
31 | UAGCAGCAAUAUUACGUAUA | -1.89 ± 0.096 | -0.924 ± 0.12
32 | ACGAAGCAAUAUUACGAUGA | -1.88 ± 0.18 | -1.29 ± 0.17
33 | CAAAAGCAAUAUUACGGGCC | -3.65 ± 0.27 | -2.28 ± 0.28
34 | CUUAAGCAAUAUUACGCGGG | -2.83 ± 0.2 | -2.92 ± 0.31
35 | AAACAGCAAUAUUACGGCCA | -1.41 ± 0.11 | -0.0737 ± 0.12
36 | CGGUAGCAAUAUUACGCAUU | – | -2.5 ± 0.24
37 | GAUGAGCAAUAUUACGUUUG | -3.24 ± 0.21 | -2.77 ± 0.26
38 | CACGAGCAAUAUUACGUGAC | -2.72 ± 0.15 | -2.44 ± 0.15
39 | AUCCAGCAAUAUUACGAUUC | -1.5 ± 0.11 | -0.86 ± 0.12
40 | GGUUAGCAAUAUUACGAUGG | -1.88 ± 0.23 | -1.16 ± 0.24
41 | UGACAGCAAUAUUACGAAGG | -3.84 ± 0.23 | -1.36 ± 0.17
42 | UCUAAGCAAUAUUACGGGGC | – | -2.21 ± 0.32
43 | AAAGAGCAAUAUUACGCAAC | -2.78 ± 0.26 | -1.77 ± 0.42
44 | UCGUAGCAAUAUUACGCAAA | -3.4 ± 0.31 | -1.09 ± 0.31
45 | UCGCAGCAAUAUUACGUUUG | -2.89 ± 0.099 | -1.09 ± 0.11
46 | AUUAAGCAAUAUUACGCAUA | -1.98 ± 0.24 | -1.32 ± 0.22
47 | CGCCAGCAAUAUUACGUUCG | -1.18 ± 0.069 | 0.325 ± 0.086
48 | GAAAAGCAAUAUUACGUCUC | -1.3 ± 0.073 | -0.38 ± 0.092
49 | UCCGAGCAAUAUUACGUCUC | -2.26 ± 0.21 | -2.99 ± 0.43
